The term Kd denotes the equilibrium constant for the complex coming apart. A word on the koff: it is the rate constant with which the complex falls apart. Usually kon stands for the second-order rate constant of association. As a reminder, the EC50 is the concentration at which the effect is half-maximal.

Test [1] deals with T1, hu-CD96 isoform 1 on HEK293T cells (human, UniProt P40200 22-585).
T1 construct: Origene RC213845, transient expression; also called HEK293T-CD96 (iso1)
T1 sequence: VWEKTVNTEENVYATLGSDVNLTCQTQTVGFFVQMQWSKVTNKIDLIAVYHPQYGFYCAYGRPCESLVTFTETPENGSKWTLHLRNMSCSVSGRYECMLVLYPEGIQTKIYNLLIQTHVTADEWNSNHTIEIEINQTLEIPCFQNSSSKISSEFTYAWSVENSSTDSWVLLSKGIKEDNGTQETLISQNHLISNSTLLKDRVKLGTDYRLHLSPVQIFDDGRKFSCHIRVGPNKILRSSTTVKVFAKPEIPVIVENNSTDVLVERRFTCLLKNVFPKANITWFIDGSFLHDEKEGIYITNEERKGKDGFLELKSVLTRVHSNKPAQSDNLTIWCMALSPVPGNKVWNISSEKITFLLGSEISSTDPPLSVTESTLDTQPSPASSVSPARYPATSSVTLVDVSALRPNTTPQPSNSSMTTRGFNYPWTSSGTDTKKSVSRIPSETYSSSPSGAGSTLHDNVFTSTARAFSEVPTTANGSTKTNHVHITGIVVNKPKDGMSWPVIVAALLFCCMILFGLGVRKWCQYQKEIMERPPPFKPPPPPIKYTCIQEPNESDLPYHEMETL
Put plainly: FACS, Ab 50 nM. As to the method: Isoform 1 of hu-CD96 (Origene, catalog #RC213845) was transiently expressed in HEK293T cells following standard lipofectamine or Fugene transfection protocol. […] Cells were washed, and binding was detected by incubation with anti-mouse IgG-FITC (Biolegend, catalog #406001) for 20 minutes at 4° C. Cell binding was analyzed by flow cytometry with a CytoFLEX (Beckman Coulter). Binding curves were calculated as a percentage of cells positive for bound antibody.

A further test concerns the target T2, cy-CD96 Fc (cynomolgus monkey, biotinylated in Table 16).
T2 construct: also called biotinylated cy-CD96-Fc
Put plainly: SPR 25C, CD96-Fc on Protein A, Fab analyte. How it is done: Briefly, hu-CD96 Fc and cy-CD96 Fc were diluted at 10 µg/mL in HBS-P buffer (0.01 M HEPES pH 7.4, 0.15 M NaCl, 0.005% Surfactant P20) and applied to the Protein A chip at 30 µL/min flow rate for 60 s in flow cell 2 (FC2). Then flow 3-fold serial dilutions of mAb1.v7 Fab variants in HBS-P buffer (0.01 M HEPES pH 7.4, 0.15 M NaCl, 0.005% surfactant P20) from (0.4 nM) to high (1000 nM) were injected (flow rate: 30 µL/min) at 25° C. to both flow cell 1 (FC1) and flow cell 2 (FC2). The sensorgram was recorded and subject to reference and buffer subtraction before evaluating by BIA- CORE® 8K Evaluation Software (version 1.1.1.7442). Association rates ($kon$) and dissociation rates ($koff$) were calculated using a simple one-to-one Langmuir binding model. The equilibrium dissociation constant (K_D) was calculated as the ratio of $koff/kon$, and the values determined for the mAb1.v7 and the 5 Fab variants are summarized in Table 10 (below).

Test [2] has as its target T3, cynomolgus monkey CD96 on cynomolgus monkey PBMCs (cynomolgus monkey, UniProt A0A2K5TWV6 22-569).
T3 construct: whole, on cells
T3 sequence: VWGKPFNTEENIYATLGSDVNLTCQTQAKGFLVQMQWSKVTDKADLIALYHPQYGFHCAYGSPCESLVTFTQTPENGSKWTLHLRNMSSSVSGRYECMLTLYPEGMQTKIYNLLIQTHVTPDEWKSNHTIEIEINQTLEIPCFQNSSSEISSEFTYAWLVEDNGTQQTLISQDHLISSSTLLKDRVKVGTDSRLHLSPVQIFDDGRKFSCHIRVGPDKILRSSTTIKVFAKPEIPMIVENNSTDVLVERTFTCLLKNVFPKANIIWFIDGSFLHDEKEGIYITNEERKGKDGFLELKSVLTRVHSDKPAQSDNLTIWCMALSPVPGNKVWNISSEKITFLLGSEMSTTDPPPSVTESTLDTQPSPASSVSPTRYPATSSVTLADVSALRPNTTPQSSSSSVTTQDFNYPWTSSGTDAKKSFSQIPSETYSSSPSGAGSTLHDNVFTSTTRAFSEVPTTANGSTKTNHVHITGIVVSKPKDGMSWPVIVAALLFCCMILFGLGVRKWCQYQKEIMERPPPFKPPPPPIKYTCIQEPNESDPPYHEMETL
Kind of test: FACS, Ab 0.64 nM. As to the method: (§1) The ability of the anti-CD96 antibodies to bind primary immune cells from human and cynomolgus monkey with lower level of receptor expression was measured. Human PBMCs (StemCell Technologies, catalog #70025) and cynomolgus monkey PBMCs (Primate Biologicals, catalog #CM-MC) were incubated with human TruStain FcX (Biolegend, catalog #422302) for 10 minutes at 4° C., followed by incubation with an anti-CD96 antibody for 20 minutes at 4° C. Cells were washed and the anti-CD96 antibody binding was detected by incubation with anti-mouse IgG-PE (Thermo Fisher, catalog #M30204) or anti-human IgG (Fab) 2-PE (Thermo Fisher, catalog #H10104) for 20 minutes at 4° C. Cells were washed, and immune subtypes were labeled with anti-CD3 (BD, catalog #557705), anti-CD4 (Biolegend, catalog #317424) and anti-CD8 (BD, catalog #557760) for 20 minutes at 4° C. Cell binding was analyzed by flow cytometry with a CytoFLEX (Beckman Coulter). Binding curves were calculated as a percentage of cells positive for bound antibody in the cell type of interest.

Test [3] concerns the target T3, cynomolgus monkey CD96 on cynomolgus …. Put plainly: FACS, % positive curve. How it is done: as §1

T2 sequence (chain, as listed by the source): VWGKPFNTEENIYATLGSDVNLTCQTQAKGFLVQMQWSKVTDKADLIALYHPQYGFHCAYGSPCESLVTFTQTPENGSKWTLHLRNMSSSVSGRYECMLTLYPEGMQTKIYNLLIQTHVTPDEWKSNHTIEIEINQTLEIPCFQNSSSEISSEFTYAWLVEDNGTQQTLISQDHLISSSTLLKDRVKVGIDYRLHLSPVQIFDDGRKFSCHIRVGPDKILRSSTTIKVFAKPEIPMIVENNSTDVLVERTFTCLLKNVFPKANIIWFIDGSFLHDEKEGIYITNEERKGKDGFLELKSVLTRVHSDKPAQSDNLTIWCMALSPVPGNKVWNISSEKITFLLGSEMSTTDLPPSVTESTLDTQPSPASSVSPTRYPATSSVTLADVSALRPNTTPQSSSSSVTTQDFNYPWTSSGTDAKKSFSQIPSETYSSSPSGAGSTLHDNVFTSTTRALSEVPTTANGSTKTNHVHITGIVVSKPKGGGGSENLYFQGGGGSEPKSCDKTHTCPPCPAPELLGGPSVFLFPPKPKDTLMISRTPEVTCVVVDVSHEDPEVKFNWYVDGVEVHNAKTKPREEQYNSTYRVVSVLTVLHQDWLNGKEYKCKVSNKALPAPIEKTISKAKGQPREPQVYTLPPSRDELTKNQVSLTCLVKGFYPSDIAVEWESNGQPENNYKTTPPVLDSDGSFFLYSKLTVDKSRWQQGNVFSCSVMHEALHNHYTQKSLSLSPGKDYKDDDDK

B1: 10G1 (clone 10G1.3G8), purified hybridoma antibody (antibody, V domains shown)
VH: QIQLVQSGPELKKPGETVKISCKASGYPFTTYGMSWVKQAPGKGLKWMGWINTDSGVPTYADDFKGRFAFSLETSANTAYLQINSLKNEDAATYFCARNIYYGWGNFDYWGQGTILTVSS
VL: DILMTQSPTTLSVTPGETVSLSCRASQDIYRNLHWYQQKSQGTPRLLIKHASDSISGIPSRFTGSGSGTDFTLSINSVKPEDEGIYYCLQGYSMPYTFGGGTKLEIK
notes: murine hybridoma IgG
In the case of B1, in test [1], the “% positive” value was found to be 56.1%.

B2: mAb1.v7.2 Fab (Fab, V domains shown)
VH: EVQLVQSGAEVKKPGASVKVSCKASGFTFTNNWRHWVRQAPGQGLEWIGMIHFNSGITNINEKFKNRVTMTTDTSTSTAYMELRSLRSEDTAVYYCRSDGVYEGYFDYWGQGTLVTVSS
VL: DIQLTQSPSSLSASVGDRVTITCKASQNVGTAIVWYQQKPGKAPKVLIYSASTRYTGVPSRFSGSGSGTDFTLTISSLQPEDFATYYCQQYSSSPLTFGQGTKVEIK
notes: also called M34R/P52aF/T97V
For B2, in the test with cy-CD96 Fc, binding was characterised by a dissociation constant (Kd) of 9.24 nM, the koff amounted to 0.00024 s⁻¹ and the kon was determined as 26000 M⁻¹ s⁻¹.

B3: mAb1.v7 IgG (humanized 12F8) (antibody, V domains shown)
VH: EVQLVQSGAEVKKPGASVKVSCKASGFTFTNNWMHWVRQAPGQGLEWIGMIHPNSGITNINEKFKNRVTMTTDTSTSTAYMELRSLRSEDTAVYYCRSDGTYEGYFDYWGQGTLVTVSS
VL: DIQLTQSPSSLSASVGDRVTITCKASQNVGTAIVWYQQKPGKAPKVLIYSASTRYTGVPSRFSGSGSGTDFTLTISSLQPEDFATYYCQQYSSSPLTFGQGTKVEIKG
notes: human IgG1 N297G
On to B3, for which the “% positive” value in test [1] amounted to 61%.

B4: mAb1.v7.70 Fab (Fab, V domains shown)
VH: EVQLVQSGAEVKKPGASVKVSCKASGFTFTNRWMHWVRQAPGQGLEWIGMIHANSGITNINEKFKNRVTMTTDTSTSTAYMELRSLRSEDTAVYYCRSDGVYEGYFDYWGQGTLVTVSS
VL: DIQLTQSPSSLSASVGDRVTITCKASQNVGTAIVWYQQKPGKAPKVLIYSASTRYTGVPSRFSGSGSGTDFTLTISSLQPEDFATYYCQQYSSSPLTFGQGTKVEIK
notes: also called N32R/P52aA/T97V
With B4, in the test with cy-CD96 Fc, the Kd is 5 nM, the koff worked out at 0.000189 s⁻¹ and the kon came to 37200 M⁻¹ s⁻¹.

B5: mAb1.v7.NGS9 IgG (antibody, V domains shown)
VH: EVQLVQSGAEVKKPGASVKVSCKASGFTFTNNFMHWVRQAPGQGLEWIGMIHANSGITNINEKFKNRVTMTTDTSTSTAYMELRSLRSEDTAVYYCRSDGVYEGYFDYWGQGTLVTVSS
VL: DIQLTQSPSSLSASVGDRVTITCKASQNVGTAIVWYQQKPGKAPKVLIYSASTRYTGVPSRFSGSGSGTDFTLTISSLQPEDFATYYCQQYSSSPLTFGQGTKVEIKG
notes: human IgG1 N297G
As to B5, in test [2], the “% positive” value turned out to be 71%. For the same molecule, the midpoint of the response in test [3], the EC50, lay at 0.073 nM.

B6: mAb1.v7.NGS11 IgG (antibody, V domains shown)
VH: EVQLVQSGAEVKKPGASVKVSCKASGFTFTNNFMHWVRQAPGQGLEWIGFIHANSGITNINEKFKNRVTMTTDTSTSTAYMELRSLRSEDTAVYYCRSDGVYEGYFDYWGQGTLVTVSS
VL: DIQLTQSPSSLSASVGDRVTITCKASQNVGTAIVWYQQKPGKAPKVLIYSASTRYTGVPSRFSGSGSGTDFTLTISSLQPEDFATYYCQQYSSSPLTFGQGTKVEIKG
notes: human IgG1 N297G
B6: in test [2], the “% positive” value stood at 74.3%. In test [3], the EC50 worked out at 0.025 nM.

B7: mAb1.v7.48 Fab (Fab, V domains shown)
VH: EVQLVQSGAEVKKPGASVKVSCKASGFTFTNRWMHWVRQAPGQGLEWIGMIHHNSGITNINEKFKNRVTMTTDTSTSTAYMELRSLRSEDTAVYYCRSDGVYEGYFDYWGQGTLVTVSS
VL: DIQLTQSPSSLSASVGDRVTITCKASQNVGTAIVWYQQKPGKAPKVLIYSASTRYTGVPSRFSGSGSGTDFTLTISSLQPEDFATYYCQQYSSSPLTFGQGTKVEIK
notes: also called N32R/P52aH/T97V
In the test with cy-CD96 Fc, B7 registered a Kd of 8.9 nM, a koff of 0.000328 s⁻¹ and a kon of 36600 M⁻¹ s⁻¹.

B8: mAb1.v7.16 Fab (Fab, V domains shown)
VH: EVQLVQSGAEVKKPGASVKVSCKASGFTFTNNWRHWVRQAPGQGLEWIGMIHPNSGITNINEKFKNRVTMTTDTSTSTAYMELRSLRSEDTAVYYCRSDGVYEGYFDYWGQGTLVTVSS
VL: DIQLTQSPSSLSASVGDRVTITCKASQNVGTAIVWYQQKPGKAPKVLIYSASTRYTGVPSRFSGSGSGTDFTLTISSLQPEDFATYYCQQYSSSPLTFGQGTKVEIK
notes: also called M34R/T97V
Consider B8, for which, in the test with cy-CD96 Fc, the Kd was found to be 94 nM, the koff came out at 0.000972 s⁻¹ and the kon stood at 10400 M⁻¹ s⁻¹.

B9: mAb1.v7.9 Fab (Fab, V domains shown)
VH: EVQLVQSGAEVKKPGASVKVSCKASGFTFTNNWRHWVRQAPGQGLEWIGMIHMNSGITNINEKFKNRVTMTTDTSTSTAYMELRSLRSEDTAVYYCRSDGVYEGYFDYWGQGTLVTVSS
VL: DIQLTQSPSSLSASVGDRVTITCKASQNVGTAIVWYQQKPGKAPKVLIYSASTRYTGVPSRFSGSGSGTDFTLTISSLQPEDFATYYCQQYSSSPLTFGQGTKVEIK
notes: also called M34R/P52aM/T97V
With B9, in the test with cy-CD96 Fc, the Kd amounted to 22 nM, the koff is 0.000802 s⁻¹ and the kon came to 36400 M⁻¹ s⁻¹.

B10: mAb1.v7.NGS10 IgG (antibody, V domains shown)
VH: EVQLVQSGAEVKKPGASVKVSCKASGFTFTNNFMHWVRQAPGQGLEWIGFIHANSGITNINEKFKNRVTMTTDTSTSTAYMELRSLRSEDTAVYYCRSDGIYEGYFDYWGQGTLVTVSS
VL: DIQLTQSPSSLSASVGDRVTITCKASQNVGTAIVWYQQKPGKAPKVLIYSASTRYTGVPSRFSGSGSGTDFTLTISSLQPEDFATYYCQQYSSSPLTFGQGTKVEIKG
notes: human IgG1 N297G
As for B10, the “% positive” value in test [2] worked out at 73.1%. In test [3], the 50% effective concentration (EC50) came out at 0.024 nM.

B11: 7E5, purified hybridoma antibody (antibody, V domains shown)
VH: QVQLKESGPGLVAPSQSLSIICTVSGFSLTNYGIHWIRQPPGKGLEWLGIIWAGGSTNYNSALMSRLTISKDNSKSQVFLKMNSLQTNDTAIYYCARVSMMGFAYWGQGTLVTVSA
VL: QAVVTQESALTTSPGETVTLTCRSSTGAVTTSNYANWVQEKPDHLFTGLIGGTNNRAPGVPARFSGSLIGDKAALTITGAQTEDEAIYFCSLWYGSHWVFGGGTKLTVL
notes: murine hybridoma IgG
Regarding B11, in test [1], the “% positive” value is 52.1%.

B12: 9H4, purified hybridoma antibody (antibody, V domains shown)
VH: EVQLLETGGGLVKSGGSLKLSCAASGFTFSDYYMYWVRQTPEKRLEWVAAISDDGTYTYYPDSVKGRFTISRDNANNYLYLQMSSLKSEDTAIYYCAKAGSYDYFDVWGAGTTVTVSS
VL: DIVLTQSPASLAVSLGQRAIISCKASQSVTFADTGLMHWYQQKPGQQPKLLIYRASNLEVGVPTRFSGSGSGTDFTLNIHPVEEEDVATYYCQQSREYPWTFGGGTKLEIK
notes: murine hybridoma IgG
On to B12, for which, in test [1], the “% positive” value came out at 57.8%.
